# Source: WO2010007376A2 (dated 2010)
# B1: DOM21-38 (other)
# VH: EVQLLESGGGLVQPGGSLRLSCAASGFTFILYDMQWVRQAPGKGLEWVSRISANGHDTYYADSVKGRFTISRDNSKNTLYLQMNSLRAEDTAVYYCAKGPHYLFDYWGQGTLVTVSS
# notes: Human VH antibody single variable domain (dAb), expressed from pDOM5 and purified
# B2: DOM21-44 (other)
# VH: EVQLLESGGGLVQPGGSLRLSCAASGFTFARYTMVWVRQAPGKGLEWVSAIHFDGRTTYYADSVKGRFTISRDNSKNTLYLQMNSLRAEDTAVYYCAKNEWASLKHFDYWGQGTLVTVSS
# notes: as for B1
# B3: DOM21-4 (other)
# VH: EVQLLESGGGLVQPGGSLRLSCAASGFTFSRYHMAWVRQAPGKGLEWVSVIDSLGLQTYYADSVKGRFTISRDNSKNTLYLQMNSLRAEDTAVYYCAEYGGAFDYWGQGTLVTVSS
# notes: Human VH antibody single variable domain (dAb) from a DP47/JH4b library, expressed from pDOM5 and purified
# B4: DOM21-18 (other)
# VL: DIQMTQSPSSLSASVGDRVTITCRASQYIGTSLNWYQQKPGKAPKLLTYQASLLQSGVPSRFSGSGSGTDFTLTISSLQPEDFATYYCQQLALRPMTFGQGTKVEIKR
# notes: Human VK (DPK9/JK1) antibody single variable domain (dAb), expressed from pDOM5 and purified
# B5: DOM21-20 (other)
# VH: EVQLLESGGGLVQPGGSLRLSCAASGFTFPAYSMIWVRQAPGKGLEWVSTISPLGYSTYYADSVKGRFTISRDNSKNTLYLQMNSLRAEDTAVYYCAEQTAYLNRATEHFDYWGQGTLVTVSS
# notes: as for B1
# B6: DOM21-22 (other)
# VH: EVQLLESGGGLVQPGGSLRLSCAASGFTFELYQMGWVRQAPGKGLEWVSTIMPSGNLTYYADSVKGRFTISRDNSKNTLYLQMNSLRAEDTAVYYCAKMWSLNLGFHAAFDYWGQGTLVTVSS
# notes: as for B1
# B7: DOM21-28 (other)
# VL: DIQMTQSPSSLSASVGDRVTITCRASQSISHSLVWYQQKPGKAPKLLIYWASLLQSGVPSRFSGSGSGTDFTLTISSLQPEDFATYYCQQGMTTPFTFGQGTKVEIKR
# notes: Human VK antibody single variable domain (dAb), expressed from pDOM5 and purified
# Experiments:
# [1] = target: T1, recombinant human CD28/Fc Chimera (R&D Systems, Abingdon, UK) (human, UniProt P10747 19-152); assay: BIAcore, CM5 chip coated with 12500 RU of CD28-Fc; dAb concentration not given
# T1 construct: Bought reagent; Fc part of the bought chimera not given
# [2] = target: T1, recombinant human CD28/Fc Chimera (R&D …); assay: BIAcore, CM5 chip coated with 12500 RU of CD28-Fc; dAb at 42.3 uM
# [3] = target: T1, recombinant human CD28/Fc Chimera (R&D …); assay: BIAcore, CM5 chip coated with 12500 RU of CD28-Fc; dAb at 13.8 uM
# [4] = target: T1, recombinant human CD28/Fc Chimera (R&D …); assay: BIAcore, CM5 chip coated with 12500 RU of CD28-Fc; dAb at 57.5 uM
# [5] = target: T1, recombinant human CD28/Fc Chimera (R&D …); assay: BIAcore, CM5 chip coated with 12500 RU of CD28-Fc; dAb at 19.4 uM
# [6] = target: T1, recombinant human CD28/Fc Chimera (R&D …); assay: BIAcore, CM5 chip coated with 12500 RU of CD28-Fc; dAb at 16.6 uM
binder,measurement,setting,value
B1,binding result,[1],binds
B2,binding result,[1],binds
B3,binding result,[2],binds
B4,binding result,[3],binds
B5,binding result,[4],binds
B6,binding result,[5],binds
B7,binding result,[6],binds
